Data as given in the Human Domainome abundance scans (Beltran et al. 2025).
± gives the uncertainty stated by the source.

B1: Protein maelstrom homolog, residues 3 to 71; numbered along this chain, Q96JY0 (parent)
chain: NRKASRNAYYFFVQEKIPELRRRGLPVARVADAIPYCSSDWALLREEEKEKYAEMAREWRAAQGKDPGP

Variants of: B1
Assay: abundance fitness (aPCA) (normalised: wild type 0, dead -1); higher = more abundant; growth selection in yeast, the domain comes from the species named
Details: Homo sapiens

Variant	abundance fitness
NRKASRNAYYFFVQEKIPELRRRGLPVARVADAIPYCSSDWALYREEEKEKYAEMAREWRAAQGKDPGP [L44Y]	-1.09 ± 0.25
NRKASRNAYYFFVQEKIKELRRRGLPVARVADAIPYCSSDWALLREEEKEKYAEMAREWRAAQGKDPGP [P18K]	-0.498 ± 0.11
NRKASRNAYYFFVQEKIPELRRRGLPVARVADAIPYCSSDWALLYEEEKEKYAEMAREWRAAQGKDPGP [R45Y]	-0.428 ± 0.15
NRKASRNAYYFFVQEKIPELRRRGLPVARVADAIPYCSSDWALLMEEEKEKYAEMAREWRAAQGKDPGP [R45M]	-0.057 ± 0.08
NRKASRNAYYFFVQEKIPELRRRGLPVARVADAIPYCSSDWALLREEEKEKYAEMARVWRAAQGKDPGP [E58V]	-0.256 ± 0.1
NRKASRNAYYLFVQEKIPELRRRGLPVARVADAIPYCSSDWALLREEEKEKYAEMAREWRAAQGKDPGP [F11L]	-0.322 ± 0.07
NRKASRNAYYFFVQEKIPELRRRGLPVARHADAIPYCSSDWALLREEEKEKYAEMAREWRAAQGKDPGP [V30H]	-0.17 ± 0.11
NRKASRNAYYFFVQEKIPELRRRGLPVARVADAIPYCSTDWALLREEEKEKYAEMAREWRAAQGKDPGP [S39T]	0.132 ± 0.074
NRKWSRNAYYFFVQEKIPELRRRGLPVARVADAIPYCSSDWALLREEEKEKYAEMAREWRAAQGKDPGP [A4W]	-0.262 ± 0.096
NRKASRNAYYFFVQEKIPELRRRGLPVARVADAIPYCSSDWNLLREEEKEKYAEMAREWRAAQGKDPGP [A42N]	0.157 ± 0.11
NRKASRNAYYMFVQEKIPELRRRGLPVARVADAIPYCSSDWALLREEEKEKYAEMAREWRAAQGKDPGP [F11M]	-0.072 ± 0.1
NRKASRNAYYFFVQEKIPELRRRGLPVARVADAIPYCSSDWALMREEEKEKYAEMAREWRAAQGKDPGP [L44M]	-0.38 ± 0.13
NRKASRNAYYFFVQEKIPELRRRGLPVARVADAIPYCSSDWALLREEEKEKYAEMAREWRAAKGKDPGP [Q63K]	-0.019 ± 0.071
NRKASRNAYYFFVQEKIPELRRRGLPVARPADAIPYCSSDWALLREEEKEKYAEMAREWRAAQGKDPGP [V30P]	0.113 ± 0.087
NRKASRNAYYFFVQEKIPELRRRGLPVARVADLIPYCSSDWALLREEEKEKYAEMAREWRAAQGKDPGP [A33L]	-0.47 ± 0.068
NRKASRNPYYFFVQEKIPELRRRGLPVARVADAIPYCSSDWALLREEEKEKYAEMAREWRAAQGKDPGP [A8P]	-0.221 ± 0.083
NRKASRNAYYFFVQEKIPELRRRGLPVARVADKIPYCSSDWALLREEEKEKYAEMAREWRAAQGKDPGP [A33K]	-0.714 ± 0.18
NRKASRNAYYFFVQEKIPELRRRGLPVARVADAIPYCSFDWALLREEEKEKYAEMAREWRAAQGKDPGP [S39F]	-0.016 ± 0.16
NRKASRNAYVFFVQEKIPELRRRGLPVARVADAIPYCSSDWALLREEEKEKYAEMAREWRAAQGKDPGP [Y10V]	-0.498 ± 0.092
NRKASRNAYYFFVQEKIPELRRRGLPVARMADAIPYCSSDWALLREEEKEKYAEMAREWRAAQGKDPGP [V30M]	-0.164 ± 0.09

Variant	abundance fitness
NRKASRNAYYFFVQEKIPELRRRGLPVARVADAIPYCSSDWALLREEEKEKYAEMAREWRAAQGKDSGP [P67S]	-0.067 ± 0.065
NRKASRNAYYFEVQEKIPELRRRGLPVARVADAIPYCSSDWALLREEEKEKYAEMAREWRAAQGKDPGP [F12E]	-0.778 ± 0.11
NRKASRNAYYFFVQEKIPELRRRGLPVARVADAIPYCSSDWALLREEEKEKYAEMAREWRAAQGKDPYP [G68Y]	-0.646 ± 0.18
NRKASRNAYIFFVQEKIPELRRRGLPVARVADAIPYCSSDWALLREEEKEKYAEMAREWRAAQGKDPGP [Y10I]	-0.657 ± 0.2
NRKASRNAYYFFVQEKIPELRRRGLPVARVADAIPYCSSDWALLRYEEKEKYAEMAREWRAAQGKDPGP [E46Y]	-0.339 ± 0.14
NRKASRNAYYFFVGEKIPELRRRGLPVARVADAIPYCSSDWALLREEEKEKYAEMAREWRAAQGKDPGP [Q14G]	-0.303 ± 0.068
NRKASRNASYFFVQEKIPELRRRGLPVARVADAIPYCSSDWALLREEEKEKYAEMAREWRAAQGKDPGP [Y9S]	-0.513 ± 0.1
NRKASRNAYYFFVQEKIPELRRRGLPVARVADAIPYCSSDWILLREEEKEKYAEMAREWRAAQGKDPGP [A42I]	-0.234 ± 0.27
NRKASRNAYYFFVQEKIPECRRRGLPVARVADAIPYCSSDWALLREEEKEKYAEMAREWRAAQGKDPGP [L20C]	-0.611 ± 0.17
NRKASRDAYYFFVQEKIPELRRRGLPVARVADAIPYCSSDWALLREEEKEKYAEMAREWRAAQGKDPGP [N7D]	0.212 ± 0.17
NRKASRNAYYFFVQEKIPELRRRGLPVARVADAIPYCSSDWALLREEEKEKYAEMAMEWRAAQGKDPGP [R57M]	-0.01 ± 0.11
NRKASRNAYYFFVQEKIPELRRRGLPVARVADAIPYCSSDWALLREEEKEKYAEMAREWRAAHGKDPGP [Q63H]	-0.31 ± 0.13
NRKASRNAYYFFVQEKIPELRRRGLPVARVADAIPYCSSDWALLRREEKEKYAEMAREWRAAQGKDPGP [E46R]	-0.14 ± 0.045
NRKASRNATYFFVQEKIPELRRRGLPVARVADAIPYCSSDWALLREEEKEKYAEMAREWRAAQGKDPGP [Y9T]	-0.615 ± 0.12
NRKASRNAYYFFVQEKIPELRRRGLPVARVADAIPYCSSDWALLREEEKEKYAEMRREWRAAQGKDPGP [A56R]	-0.523 ± 0.045
NRKASRNAYYFFVQEKIPELRRRGLPVARVADAIPYCSSDWALLRAEEKEKYAEMAREWRAAQGKDPGP [E46A]	-0.23 ± 0.068
NRKASRNAYFFFVQEKIPELRRRGLPVARVADAIPYCSSDWALLREEEKEKYAEMAREWRAAQGKDPGP [Y10F]	0.085 ± 0.14
NRKASRNAYYFFVQEKIPELRRRGLPVARVADAIPYCSSDWALLREEEKEKYAEMQREWRAAQGKDPGP [A56Q]	-0.226 ± 0.078
NRKASRGAYYFFVQEKIPELRRRGLPVARVADAIPYCSSDWALLREEEKEKYAEMAREWRAAQGKDPGP [N7G]	0.01 ± 0.063
